Laboratory results: US20170114140A1
Values joined by “and” are separate entries in the source; they are usually repeats but may differ in a detail not shown here. Equal values may be shown once. Values belong to the substance of their own block, whether it stands above or below them.

Legend:
Experiment in all cases: cell-based or functional assay
[1] = target: IL-25 (R&D Systems) used to restimulate human PBMC (UniProt Q9H293)
[2] = target: human IL-17RB on human PBMC (human) (UniProt Q9NRM6)
[3] = target: human IL-17RA on cells (human PBMC; human foreskin fibroblasts) (human) (UniProt Q96F46)

Sequence of IL-25 (R&D Systems) used to restimulate human PBMC (Q9H293 33-177 limits assumed): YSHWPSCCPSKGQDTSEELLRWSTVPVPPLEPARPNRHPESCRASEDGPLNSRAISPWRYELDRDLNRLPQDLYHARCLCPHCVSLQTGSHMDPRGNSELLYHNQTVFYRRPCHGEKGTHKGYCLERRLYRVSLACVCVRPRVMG
Sequence of human IL-17RB on human PBMC (human) (Q9NRM6 18-502): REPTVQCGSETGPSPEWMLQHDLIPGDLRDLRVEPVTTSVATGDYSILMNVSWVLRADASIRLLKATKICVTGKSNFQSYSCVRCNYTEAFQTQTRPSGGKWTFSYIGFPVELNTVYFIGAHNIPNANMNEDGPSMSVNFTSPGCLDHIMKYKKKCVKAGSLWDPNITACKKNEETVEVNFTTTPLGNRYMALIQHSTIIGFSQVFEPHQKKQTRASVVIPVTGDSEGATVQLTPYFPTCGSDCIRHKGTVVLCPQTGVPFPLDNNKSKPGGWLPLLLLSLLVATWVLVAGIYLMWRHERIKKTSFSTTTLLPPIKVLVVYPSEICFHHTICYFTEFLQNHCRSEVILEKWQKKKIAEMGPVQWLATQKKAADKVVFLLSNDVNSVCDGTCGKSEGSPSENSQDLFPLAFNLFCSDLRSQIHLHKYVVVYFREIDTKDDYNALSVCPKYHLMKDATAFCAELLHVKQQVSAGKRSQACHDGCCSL

% Inhibition of IL-5 production (TSLP treated human PBMC + IL-2 + IL-25), inhibitor 10 micrograms/mL [1]: 67%
Substance: HuIL-17RB: HIS (extracellular region of human IL-17RB fused to poly HIS) (from UniProt Q9NRM6 18-292) (receptor)

% Inhibition of IL-5 production (TSLP treated human PBMC + IL-2 + IL-25), inhibitor 10 micrograms/mL [2]: 13%
Substance: MAB1207: anti-HuIL-17RB MuIgG2b (R&D Systems) (antibody)

% Inhibition of IL-5 production (TSLP treated human PBMC + IL-2 + IL-25), inhibitor 10 micrograms/mL [3]: 24% and 33%
Substance: MAB1771: anti-HuIL-17RA MuIgG2b (R&D Systems) (antibody)
